For the test, the target named is HtpGMtb_C (C-terminal domain of HtpGMtb, wild type) (M. tuberculosis H37Rv). As to the kind of experiment: SEC-MALS. Background: SEC sorts molecules by how far they enter the pores of the column.

HtpGMtb_C (C-terminal domain of HtpGMtb, wild type) (domain or fragment), sequence (A1KKZ1 417-645 limits assumed): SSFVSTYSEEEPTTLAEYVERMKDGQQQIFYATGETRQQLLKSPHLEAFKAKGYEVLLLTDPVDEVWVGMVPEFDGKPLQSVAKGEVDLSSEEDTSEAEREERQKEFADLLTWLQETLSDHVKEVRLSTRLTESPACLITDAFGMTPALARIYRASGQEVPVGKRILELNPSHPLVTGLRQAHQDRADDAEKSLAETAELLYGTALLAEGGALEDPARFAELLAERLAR

As to “HtpGMtb_C (C-terminal domain of HtpGMtb, wild type) (domain or fragment)”, the stoichiometry N was found to be 2.

As usually defined, the stoichiometry N is the number of molecules, sites or subunits per partner or assembly.
